Experimental data published in PMC12561408, “AI‐Driven De Novo Design of Ultra Long‐Acting GLP‐1 Receptor Agonists” (Advanced Science, 2025).

Experiments:
Experiment in all cases: SPR
Conditions in all cases: both partners purified
[1] = biological target: T1, GST-peptide fusion protein D13
T1 construct: source: E. coli BL21 (DE3), GST-peptide fusion; not shown: GST, N-terminal, kept

[2] = biological target: T2, GST-peptide fusion protein D41
T2 construct: source: E. coli BL21 (DE3), GST-peptide fusion; not shown: GST, N-terminal, kept

[3] = biological target: T3, GST-peptide fusion protein D44
T3 construct: source: E. coli BL21 (DE3), GST-peptide fusion; not shown: GST, N-terminal, kept

B1: Human GLP-1R protein (receptor)
chain: RPQGATVSLWETVQKWREYRRQCQRSLTEDPPPATDLFCNRTFDEYACWPDGEPGSFVNVSCPWYLPWASSVPQGHVYRFCTAEGLWLQKDNSSLPWRDLSECEESKRGERSSPEE
B1 showed a Kd [1] of 8.58 µM, a Kd [2] of 5.19 µM and a Kd [3] of 6.78 µM.
